What was measured:
[1] = target: envelope proteins E1/E2 of high-yield genotype 3a recombinant virus DBNcc-HI (hepatitis C virus genotype 3a, strain DBNcc-HI) (UniProt Q81258); assay: cell-based or functional assay
[2] = target: envelope proteins E1/E2 of high-yield genotype 2a recombinant virus J6cc-HI (hepatitis C virus genotype 2a, strain J6cc-HI) (UniProt P26660); assay: cell-based or functional assay
[3] = target: envelope proteins E1/E2 of the original genotype 3a recombinant virus DBN3acc (hepatitis C virus genotype 3a, strain DBN3acc) (UniProt Q81258); assay: cell-based or functional assay
[4] = target: envelope proteins E1/E2 of the genotype 1a HCV seed stock derived from TNcc-PP-18 (hepatitis C virus genotype 1a, strain TNcc) (UniProt P26664); assay: cell-based or functional assay
[5] = target: envelope proteins E1/E2 of high-yield genotype 1a recombinant virus TNcc-HI (hepatitis C virus genotype 1a, strain TNcc-HI) (UniProt P26664); assay: cell-based or functional assay
[6] = target: TNcc-HI E1/E2 complexes from lysates of HEK293 cells transfected with an E1/E2 expression plasmid (hepatitis C virus genotype 1a, strain TNcc-HI) (UniProt P26664); assay: ELISA on lectin-captured E1/E2 complexes, negative control (FIG. 13)
[7] = target: J6cc-HI E1/E2 complexes from lysates of HEK293 cells transfected with an E1/E2 expression plasmid (hepatitis C virus genotype 2a, strain J6cc-HI) (UniProt P26660); assay: as above
[8] = target: DBNcc-HI E1/E2 complexes from lysates of HEK293 cells transfected with an E1/E2 expression plasmid (hepatitis C virus genotype 3a, strain DBNcc-HI) (UniProt Q81258); assay: as above
[9] = target: TNcc-HI E1/E2 complexes from lysates of HEK293 cells transfected with an E1/E2 expression plasmid (hepatitis C virus genotype 1a, strain TNcc-HI) (UniProt P26664); assay: ELISA on lectin-captured E1/E2 complexes, negative control (FIG. 11)
[10] = target: J6cc-HI E1/E2 complexes from lysates of HEK293 cells transfected with an E1/E2 expression plasmid (hepatitis C virus genotype 2a, strain J6cc-HI) (UniProt P26660); assay: as above
[11] = target: DBNcc-HI E1/E2 complexes from lysates of HEK293 cells transfected with an E1/E2 expression plasmid (hepatitis C virus genotype 3a, strain DBNcc-HI) (UniProt Q81258); assay: as above
[12] = target: TNcc-HI E1/E2 complexes from lysates of HEK293 cells transfected with an E1/E2 expression plasmid (hepatitis C virus genotype 1a, strain TNcc-HI) (UniProt P26664); assay: ELISA on lectin-captured E1/E2 complexes, negative control (FIG. 12)
[13] = target: J6cc-HI E1/E2 complexes from lysates of HEK293 cells transfected with an E1/E2 expression plasmid (hepatitis C virus genotype 2a, strain J6cc-HI) (UniProt P26660); assay: as above
[14] = target: DBNcc-HI E1/E2 complexes from lysates of HEK293 cells transfected with an E1/E2 expression plasmid (hepatitis C virus genotype 3a, strain DBNcc-HI) (UniProt Q81258); assay: as above

Substance | fold increased neutralization sensitivity against 3a(DBN) [1] | fold increased neutralization sensitivity against 2a(J6) [2] | fold increased neutralization sensitivity against 3a(DBN) [3] | fold increased neutralization sensitivity against 1a(TN) [4] | fold increased neutralization sensitivity against 1a(TN) [5] | OD at 450 nm [6] | OD at 450 nm [7] | OD at 450 nm [8] | OD at 450 nm [9] | OD at 450 nm [10] | OD at 450 nm [11] | OD at 450 nm [12] | OD at 450 nm [13] | OD at 450 nm [14]
human monoclonal antibody AR3A | 1250 fold | 440 fold | 167 fold | 3 fold | 300 fold |  |  |  |  |  |  |  |  | 
human monoclonal antibody AR4A | 220 fold | 12 fold | 22 fold | 15 fold | 2400 fold |  |  |  |  |  |  |  |  | 
ECL sheep anti-mouse IgG horseradish-peroxidase linked whole antibody (GE Healthcare) |  |  |  |  |  | 0.05 OD | 0.05 OD | 0.05 OD | 0.05 OD | 0.05 OD | 0.05 OD | 0.05 OD | 0.05 OD | 0.05 OD

Reference: US20260263580A1
